According to the RNAGym collection of RNA variant scans (doi:10.7554/elife.80360):

B1: HDV Ribozyme (parent)
chain: GGCCGGCAUGGUCCCAGCCUCCUCGCUGGCGCCGGCUGGGCAACAUUCCGAGGGGACCGUCCCCUCGGUAAUGGCGAAUGGGACCCA

Variants of: B1
Test: self-cleavage, relative activity (ratio to wild type); higher = more cleavage; co-transcriptional

Row | Variant | self-cleavage
1 | G2A U27G | 0
2 | G2A U27A | 0.0997
3 | G2A G31C | 0.0354
4 | G2A C62U | 0.0886
5 | G2U A71G | 0.141
6 | C3A C48G | 0.795
7 | G2C A83C | 0.0302
8 | G2C A83G | 0.132
9 | G1U C86A | 0.32
10 | C3A C84U | 0.157
11 | G2A C85A | 0.268
12 | G2A C85G | 0.217
13 | G1U G76A | 0.62
14 | G2U U12G | 0.0346
15 | G2U U12C | 0.0241
16 | G2A A78G | 0.0504
17 | G2A A78C | 0.0432
18 | G2A C30A | 0.0152
19 | G2A C30U | 0.0639
20 | G2A C30G | 0.0432
21 | C3A A45U | 0.269
22 | C3G A8C | 0.293
23 | G2C A8G | 0.0554
24 | G2A C33G | 0.0378

Row | Variant | self-cleavage
25 | G2A C21G | 0.0528
26 | C3A U20C | 0.108
27 | C3A C22A | 0.0716
28 | C3A C22U | 0.15
29 | G2C G54C | 0.0208
30 | G1U G54C | 0.361
31 | G1U G54A | 0.277
32 | C3A G31A | 0.0507
33 | C3A G31C | 0.0166
34 | G2U G68U | 0.134
35 | G2C C61G | 0.0647
36 | G2C C61U | 0.137
37 | C3A C15U | 0.371
38 | C3A A8C | 0.299
39 | G1U C41U | 0.228
40 | G1U C41G | 0.249
41 | C3A C57U | 0.701
42 | G2U C86G | 0.117
43 | G2U C33G | 0.00889
44 | G2U C33A | 0.043
45 | C3A C58U | 0.596
46 | C3A C58A | 0.609
47 | G2C C18A | 0.0346
48 | G1U C84G | 0.297

Row | Variant | self-cleavage
49 | C3A C24G | 0.089
50 | G2A G34C | 0.0489
51 | C3G A87U | 0.875
52 | G2C G25U | 0.0702
53 | G2C G76U | 0.0455
54 | C3G A51G | 0.746
55 | C3A U47C | 0.422
56 | G2A U20A | 0.0361
57 | G2A U20G | 0
58 | G2C C63U | 0
59 | G2C C63G | 0.0314
60 | C3A U46A | 0.148
61 | G2U C7G | 0
62 | G2U C26U | 0.0852
63 | C3A C33G | 0
64 | G2C C21A | 0
65 | G2C G28C | 0.0475
66 | G2C G28A | 0.0475
67 | G2U C57U | 0.0365
68 | G2U A51G | 0.0683
69 | G2A C86G | 0.0755
70 | C3A C75A | 0.0784
71 | C3G A83U | 0.0678
72 | G2C U46A | 0.0911

Row | Variant | self-cleavage
73 | G2C U46G | 0.0959
74 | C3A C85A | 0.646
75 | G2U U79A | 0
76 | G2U U79G | 0
77 | C3A G80A | 0.175
78 | G2A C84U | 0.119
79 | G2A C84A | 0.0519
80 | G2C A78C | 0
81 | G1U G25A | 0.354
82 | G1U G25C | 0.17
83 | G2U U23G | 0.0287
84 | G2U U23A | 0.0391
85 | G2C C19U | 0.0665
86 | C3A G39U | 0.0777
87 | G2A C66U | 0.192
88 | G2C G39C | 0
89 | G2C G39A | 0.121
90 | C3A G68U | 0.465
91 | C3A G68C | 0.363
92 | G2C G40A | 0.0773
93 | G2C G40U | 0.0409
94 | G2C C49G | 0.145
95 | G2C C13G | 0.0504
96 | C3G C13U | 0.229

Row | Variant | self-cleavage
97 | C3A G59A | 0.739
98 | C3A G59C | 0.668
99 | G2A U37A | 0.0755
100 | G2A U47C | 0.0292
101 | G2A U47G | 0.374
102 | G2U A43G | 0.0205
103 | C3A G34A | 0.123
104 | G2A U65G | 0.223
105 | G2A U65C | 0.117
106 | C3A A42U | 0.0773
107 | G1U G17C | 0.341
108 | G1U G29A | 0.336
109 | C3A G52U | 0.404
110 | G2A C7G | 0.017
111 | G2A C7U | 0.0852
112 | C3A A70C | 0.501
113 | C3A C61G | 0.512
114 | C3A U60G | 0.471
115 | G1U G34C | 0.155
116 | C3A G17C | 0.0329
117 | G1U G73A | 0.237
118 | G2U G34A | 0.0671
119 | G2U G34C | 0.0484
120 | G2U G76A | 0.112

Row | Variant | self-cleavage
121 | G2U C85A | 0.104
122 | G2A G11A | 0.0786
123 | G2A G11U | 0.0328
124 | G2C C30U | 0.117
125 | G2A A43C | 0.0665
126 | G2A U46C | 0.109
127 | G2C G59A | 0.0193
128 | G2C C7G | 0.0692
129 | G2C C7A | 0.0268
130 | G2A A16U | 0.0665
131 | G2A C57U | 0.203
132 | G2U G10C | 0.0621
133 | G2U G10U | 0.038
134 | G2U G10A | 0
135 | G2U C41A | 0.0589
136 | C3A U65A | 0.641
137 | C3A U65C | 0.602
138 | G2C U37A | 0.0583
139 | G2U U60C | 0.0287
140 | G2U C4A | 0
141 | G2U C4U | 0.0755
142 | C3A G53A | 0.519
143 | G1U C61A | 0.326
144 | G1U C61G | 0.326

Row | Variant | self-cleavage
145 | C3A C30G | 0.0166
146 | G2C G11U | 0.0519
147 | C3A U72G | 0.0712
148 | C3A U72C | 0.198
149 | C3A G54C | 0.34
150 | C3A A56C | 0.495
151 | G2A C41A | 0.168
152 | G2U C44U | 0
153 | G2U C44A | 0.0583
154 | G2A U9A | 0.0773
155 | G2U G17C | 0.0228
156 | G1U U20C | 0.401
157 | G2C A16C | 0.0361
158 | C3A C32G | 0.0266
159 | G2C G80A | 0.0573
160 | G2C A45G | 0.107
161 | G2C A45C | 0.0528
162 | C3G A77C | 0.233
163 | G2A G73U | 0.0443
164 | G1U G6A | 0.41
165 | G2U U46A | 0.0187
166 | G2U U46G | 0.0231
167 | G2C U9G | 0.0723
